# Test results from patent US20260184748A1 (University of Pennsylvania, published 2026).
# Where no end group is shown, it is not given here.
# T1: AGTR1 (UniProt P30556 1-359)
# T1 sequence (looked up): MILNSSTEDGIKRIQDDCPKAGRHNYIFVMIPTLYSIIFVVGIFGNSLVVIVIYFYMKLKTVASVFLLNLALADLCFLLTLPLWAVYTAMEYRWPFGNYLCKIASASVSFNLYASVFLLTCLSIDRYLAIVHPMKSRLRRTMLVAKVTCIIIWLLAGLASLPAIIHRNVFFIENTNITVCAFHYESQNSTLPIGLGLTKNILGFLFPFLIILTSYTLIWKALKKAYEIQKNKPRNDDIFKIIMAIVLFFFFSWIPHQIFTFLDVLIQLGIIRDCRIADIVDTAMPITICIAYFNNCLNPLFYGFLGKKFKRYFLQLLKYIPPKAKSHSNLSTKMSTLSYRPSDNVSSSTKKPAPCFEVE
# T2: NPBWR1 (UniProt P48145 1-328)
# T2 sequence (looked up): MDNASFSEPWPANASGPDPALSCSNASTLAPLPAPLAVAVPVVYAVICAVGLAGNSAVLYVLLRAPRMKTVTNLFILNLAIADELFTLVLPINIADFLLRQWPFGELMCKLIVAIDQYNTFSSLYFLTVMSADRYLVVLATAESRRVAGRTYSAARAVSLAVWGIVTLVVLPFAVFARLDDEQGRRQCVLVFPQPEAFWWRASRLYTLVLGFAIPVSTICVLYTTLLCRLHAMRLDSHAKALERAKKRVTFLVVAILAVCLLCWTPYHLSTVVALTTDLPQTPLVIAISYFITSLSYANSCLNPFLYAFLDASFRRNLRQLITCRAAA
# T3: CMKLR1 (UniProt Q99788 1-373, limits assumed)
# T3 sequence (looked up): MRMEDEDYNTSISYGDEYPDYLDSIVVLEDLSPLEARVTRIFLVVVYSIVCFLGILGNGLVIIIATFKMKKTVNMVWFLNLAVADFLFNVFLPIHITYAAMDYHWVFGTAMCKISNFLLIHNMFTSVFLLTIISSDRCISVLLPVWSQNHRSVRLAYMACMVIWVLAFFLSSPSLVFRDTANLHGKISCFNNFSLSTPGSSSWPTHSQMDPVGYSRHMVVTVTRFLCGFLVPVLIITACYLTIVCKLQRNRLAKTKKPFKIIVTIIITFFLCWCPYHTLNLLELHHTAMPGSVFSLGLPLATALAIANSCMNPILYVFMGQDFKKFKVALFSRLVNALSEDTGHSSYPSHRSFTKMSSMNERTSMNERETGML
# T4: CXCR1 (UniProt P25024 1-350)
# T4 sequence (looked up): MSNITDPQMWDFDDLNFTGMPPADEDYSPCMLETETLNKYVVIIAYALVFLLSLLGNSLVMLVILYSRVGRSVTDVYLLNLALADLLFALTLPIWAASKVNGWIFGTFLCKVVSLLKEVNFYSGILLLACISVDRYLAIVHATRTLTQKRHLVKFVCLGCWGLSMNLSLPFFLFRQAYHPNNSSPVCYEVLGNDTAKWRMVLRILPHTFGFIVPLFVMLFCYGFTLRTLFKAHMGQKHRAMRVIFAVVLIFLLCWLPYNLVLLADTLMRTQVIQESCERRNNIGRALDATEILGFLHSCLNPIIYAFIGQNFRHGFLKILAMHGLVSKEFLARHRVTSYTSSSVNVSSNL
# T5: GLP2R (UniProt O95838 1-553, limits assumed)
# T5 sequence (looked up): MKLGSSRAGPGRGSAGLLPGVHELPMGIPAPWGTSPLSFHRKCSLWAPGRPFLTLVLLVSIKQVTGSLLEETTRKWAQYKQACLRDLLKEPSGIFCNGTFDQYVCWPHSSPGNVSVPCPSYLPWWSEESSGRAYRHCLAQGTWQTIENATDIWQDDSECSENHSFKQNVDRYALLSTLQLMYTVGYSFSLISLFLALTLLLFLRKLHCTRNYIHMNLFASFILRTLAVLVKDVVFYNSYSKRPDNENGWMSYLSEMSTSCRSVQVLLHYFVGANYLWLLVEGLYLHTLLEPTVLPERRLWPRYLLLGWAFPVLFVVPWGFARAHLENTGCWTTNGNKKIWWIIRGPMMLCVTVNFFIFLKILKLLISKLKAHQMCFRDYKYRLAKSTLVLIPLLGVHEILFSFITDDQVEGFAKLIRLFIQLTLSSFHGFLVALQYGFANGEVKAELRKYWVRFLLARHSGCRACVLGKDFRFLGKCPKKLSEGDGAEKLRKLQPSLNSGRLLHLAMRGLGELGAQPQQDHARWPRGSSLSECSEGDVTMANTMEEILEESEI
# How the values were obtained:
# Test in all cases: cell-based or functional assay
# [1] = biological target: PROKR2 (UniProt Q8NFJ6 1-384)
# [2] = biological target: CALCRL-RAMP1 (UniProt Q16602 23-461; O60894 27-148)
# [3] = biological target: T1, AGTR1
# [4] = biological target: T2, NPBWR1
# [5] = biological target: AVPR2 (UniProt P30518 1-371)
# [6] = biological target: T3, CMKLR1
# [7] = biological target: MLNR (UniProt O43193 1-412)
# [8] = biological target: HRH3 (UniProt Q9Y5N1 1-445, limits assumed)
# [9] = biological target: GPR92 (UniProt Q9H1C0 1-372)
# [10] = biological target: HTR2A (UniProt P28223 1-471)
# [11] = biological target: T4, CXCR1
# [12] = biological target: T5, GLP2R
# [13] = biological target: MC4R (UniProt P32245 1-332)
# [14] = biological target: DRD2S (UniProt P14416-2 1-414)
# [15] = biological target: AVPR1A (UniProt P37288 1-418)
# AVPR1A, sequence (P37288 whole entry): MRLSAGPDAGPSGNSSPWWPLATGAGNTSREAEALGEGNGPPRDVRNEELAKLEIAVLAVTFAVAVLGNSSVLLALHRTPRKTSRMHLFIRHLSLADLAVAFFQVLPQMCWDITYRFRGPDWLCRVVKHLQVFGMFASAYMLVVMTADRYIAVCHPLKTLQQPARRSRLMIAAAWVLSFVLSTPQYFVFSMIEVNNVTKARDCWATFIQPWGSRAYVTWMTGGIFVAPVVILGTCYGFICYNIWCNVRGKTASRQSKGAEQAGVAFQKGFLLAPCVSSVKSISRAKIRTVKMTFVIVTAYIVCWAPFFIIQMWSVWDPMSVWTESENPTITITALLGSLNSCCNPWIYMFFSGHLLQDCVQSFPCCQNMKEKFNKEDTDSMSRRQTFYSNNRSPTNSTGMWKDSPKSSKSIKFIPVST
# CALCRL-RAMP1, sequence (Q16602 23-461 limits assumed, chain 1 of 2): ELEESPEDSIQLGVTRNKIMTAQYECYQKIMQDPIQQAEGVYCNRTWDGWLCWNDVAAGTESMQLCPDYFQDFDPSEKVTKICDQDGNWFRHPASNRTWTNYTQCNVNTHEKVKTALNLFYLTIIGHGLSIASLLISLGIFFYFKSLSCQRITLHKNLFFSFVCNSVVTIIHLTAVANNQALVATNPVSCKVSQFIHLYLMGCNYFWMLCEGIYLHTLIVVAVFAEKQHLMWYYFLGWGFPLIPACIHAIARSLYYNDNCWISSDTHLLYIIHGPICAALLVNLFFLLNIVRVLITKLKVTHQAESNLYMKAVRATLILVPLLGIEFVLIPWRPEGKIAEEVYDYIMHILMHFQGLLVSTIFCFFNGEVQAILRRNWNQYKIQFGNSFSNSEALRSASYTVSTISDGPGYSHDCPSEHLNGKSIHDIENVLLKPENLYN
# CALCRL-RAMP1, sequence (O60894 27-148 limits assumed, chain 2 of 2): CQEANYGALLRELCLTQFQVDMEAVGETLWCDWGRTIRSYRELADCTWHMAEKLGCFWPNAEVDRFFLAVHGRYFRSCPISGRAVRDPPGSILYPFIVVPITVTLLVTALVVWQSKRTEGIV
# PROKR2, sequence (Q8NFJ6 whole entry): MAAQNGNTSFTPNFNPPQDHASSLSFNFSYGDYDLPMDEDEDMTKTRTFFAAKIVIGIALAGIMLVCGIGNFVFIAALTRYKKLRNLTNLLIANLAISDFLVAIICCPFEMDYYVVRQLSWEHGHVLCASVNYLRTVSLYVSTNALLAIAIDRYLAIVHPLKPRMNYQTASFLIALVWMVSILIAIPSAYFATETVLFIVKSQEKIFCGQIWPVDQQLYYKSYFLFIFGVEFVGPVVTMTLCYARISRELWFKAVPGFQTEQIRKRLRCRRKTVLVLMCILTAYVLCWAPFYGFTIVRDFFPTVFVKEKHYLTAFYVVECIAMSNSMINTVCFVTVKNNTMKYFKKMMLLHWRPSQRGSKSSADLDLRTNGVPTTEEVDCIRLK
# DRD2S, sequence (P14416 other isoform, or with tags, fused parts or gaps limits assumed): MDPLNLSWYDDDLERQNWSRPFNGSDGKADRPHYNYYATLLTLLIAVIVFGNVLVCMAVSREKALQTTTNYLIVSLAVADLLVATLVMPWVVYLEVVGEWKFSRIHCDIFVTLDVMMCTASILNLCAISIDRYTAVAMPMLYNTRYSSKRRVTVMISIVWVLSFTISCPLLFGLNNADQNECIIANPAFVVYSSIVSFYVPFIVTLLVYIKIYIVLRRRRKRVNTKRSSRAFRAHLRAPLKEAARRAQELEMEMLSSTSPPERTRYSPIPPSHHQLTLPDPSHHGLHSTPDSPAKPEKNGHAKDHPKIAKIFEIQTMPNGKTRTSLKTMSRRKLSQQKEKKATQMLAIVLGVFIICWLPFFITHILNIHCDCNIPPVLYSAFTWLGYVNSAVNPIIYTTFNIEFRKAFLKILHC
# HTR2A, sequence (P28223 whole entry): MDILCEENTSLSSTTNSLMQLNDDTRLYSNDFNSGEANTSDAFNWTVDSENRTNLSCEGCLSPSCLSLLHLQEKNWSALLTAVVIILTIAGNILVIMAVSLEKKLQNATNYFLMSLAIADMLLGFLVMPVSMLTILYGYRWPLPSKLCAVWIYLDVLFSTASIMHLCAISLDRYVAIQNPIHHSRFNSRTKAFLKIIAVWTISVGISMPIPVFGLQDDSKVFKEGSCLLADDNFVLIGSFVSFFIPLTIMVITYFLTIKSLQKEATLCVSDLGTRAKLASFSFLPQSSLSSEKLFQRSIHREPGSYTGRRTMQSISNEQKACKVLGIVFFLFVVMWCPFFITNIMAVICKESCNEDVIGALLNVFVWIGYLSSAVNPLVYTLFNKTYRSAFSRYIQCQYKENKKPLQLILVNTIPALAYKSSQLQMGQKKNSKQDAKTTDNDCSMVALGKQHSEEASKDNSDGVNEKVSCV
# HRH3, sequence (Q9Y5N1 whole entry): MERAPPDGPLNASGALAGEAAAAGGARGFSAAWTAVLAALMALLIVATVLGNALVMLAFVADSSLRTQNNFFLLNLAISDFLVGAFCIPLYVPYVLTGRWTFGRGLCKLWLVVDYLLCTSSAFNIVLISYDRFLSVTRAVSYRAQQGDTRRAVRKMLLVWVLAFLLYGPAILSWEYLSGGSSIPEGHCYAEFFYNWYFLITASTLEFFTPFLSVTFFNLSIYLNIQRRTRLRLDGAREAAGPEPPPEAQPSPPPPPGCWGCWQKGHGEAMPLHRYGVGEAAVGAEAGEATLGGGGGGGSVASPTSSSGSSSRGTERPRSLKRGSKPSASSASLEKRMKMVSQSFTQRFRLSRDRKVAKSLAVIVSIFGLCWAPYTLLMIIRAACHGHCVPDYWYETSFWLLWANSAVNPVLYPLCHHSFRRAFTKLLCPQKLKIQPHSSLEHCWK
# MLNR, sequence (O43193 whole entry): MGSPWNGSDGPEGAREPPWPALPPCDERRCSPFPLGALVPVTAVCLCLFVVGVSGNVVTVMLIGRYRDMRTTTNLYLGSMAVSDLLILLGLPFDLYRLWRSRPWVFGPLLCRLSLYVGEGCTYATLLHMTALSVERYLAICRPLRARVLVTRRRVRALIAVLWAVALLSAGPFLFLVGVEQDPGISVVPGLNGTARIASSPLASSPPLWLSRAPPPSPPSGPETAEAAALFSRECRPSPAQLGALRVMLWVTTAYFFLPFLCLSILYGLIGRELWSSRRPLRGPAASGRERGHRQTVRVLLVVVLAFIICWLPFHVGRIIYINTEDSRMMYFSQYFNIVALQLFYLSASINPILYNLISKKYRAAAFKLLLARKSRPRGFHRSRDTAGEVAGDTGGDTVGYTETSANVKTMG
# GPR92, sequence (Q9H1C0 whole entry): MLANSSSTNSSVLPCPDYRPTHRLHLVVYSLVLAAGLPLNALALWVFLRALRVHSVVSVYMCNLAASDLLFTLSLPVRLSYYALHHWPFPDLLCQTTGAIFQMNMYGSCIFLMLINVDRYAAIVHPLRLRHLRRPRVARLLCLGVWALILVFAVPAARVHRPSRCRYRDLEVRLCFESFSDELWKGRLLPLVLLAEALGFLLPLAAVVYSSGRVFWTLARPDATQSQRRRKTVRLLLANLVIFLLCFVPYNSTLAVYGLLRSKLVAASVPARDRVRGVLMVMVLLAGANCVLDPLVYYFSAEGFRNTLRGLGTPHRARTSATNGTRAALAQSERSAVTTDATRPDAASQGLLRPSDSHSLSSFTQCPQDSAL
# MC4R, sequence (P32245 whole entry): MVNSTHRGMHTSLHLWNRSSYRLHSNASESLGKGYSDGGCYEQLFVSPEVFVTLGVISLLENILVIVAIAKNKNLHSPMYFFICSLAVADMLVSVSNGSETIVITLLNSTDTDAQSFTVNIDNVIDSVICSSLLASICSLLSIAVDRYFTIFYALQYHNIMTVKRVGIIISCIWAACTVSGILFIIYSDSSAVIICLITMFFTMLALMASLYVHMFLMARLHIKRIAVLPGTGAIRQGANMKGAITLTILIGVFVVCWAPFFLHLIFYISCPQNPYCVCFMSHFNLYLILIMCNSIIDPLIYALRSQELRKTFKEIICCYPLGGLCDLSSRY
binder,measurement,setting,value
"QATVGDVNTDRPGLLDLK (also: synthesised on Rink amide resin, C-terminal amide not given here outright) [octadecaneuropeptide (ODN)]","% Activity, arrestin, antagonist mode, 2.5 uM",[1],-17.5%
same,"% Activity, arrestin, antagonist mode, 2.5 uM",[2],-19%
same,"% Activity, arrestin, antagonist mode, 2.5 uM",[3],-8.5%
same,"% Activity, arrestin, antagonist mode, 2.5 uM",[4],-15%
same,"% Activity, arrestin, antagonist mode, 2.5 uM",[5],-11.2%
same,"% Activity, arrestin, antagonist mode, 2.5 uM",[6],-18.3%
same,"% Activity, arrestin, antagonist mode, 2.5 uM",[7],-5.5%
same,"% Activity, arrestin, antagonist mode, 2.5 uM",[8],-8.6%
same,"% Activity, arrestin, antagonist mode, 2.5 uM",[9],10.6%
same,"% Activity, arrestin, antagonist mode, 2.5 uM",[10],-9.7%
same,"% Activity, arrestin, antagonist mode, 2.5 uM",[11],10.2%
same,"% Activity, arrestin, antagonist mode, 2.5 uM",[12],-15.4%
same,"% Activity, arrestin, antagonist mode, 2.5 uM",[13],-4.6%
same,"% Activity, arrestin, antagonist mode, 2.5 uM",[14],-13.4%
same,"% Activity, arrestin, antagonist mode, 2.5 uM",[15],-2.4%
